In patent US9957295B2, “Peptides inhibiting cold-inducible RNA binding protein activity” (The Feinstein Institute for Medical Research, priority 2013, dated 2018):

What was measured:
[1] = test system: wild-type and TLR4 knockout mice; assay: rmCIRP injection into wild-type and Tlr4−/− mice; type: in vivo, mouse; conditions: 1 or 5 mg/kg BW, after 4 h
Procedure: Tlr4^−/− mice were incubated with 1.5 μg/ml rmCIRP for 4 h. TNF-α levels in conditioned medium were assayed by ELISA. Data are mean±s.e.m. from three independent experiments. *P<0.05 vs. WT. In comparing the difference among wild-type and knockout mice targeting each receptor in response to rmCIRP, only TLR4-deficient macrophages lost the response for TNF-α induction, while RAGE- and TLR2-deficient macrophages maintained similar responses to wild-type macrophages (FIG. 13A). To confirm the requirement of TLR4 in mediating CIRP activity, wild-type and TLR4 knockout mice were injected with rmCIRP (1 or 5 mg/kg BW) or normal saline (vehicle). After 4 h, serum samples were collected and assayed for TNF-α and IL-6 by ELISA and HMGB1 by Western blotting as well as serum AST and ALT. Data are mean±s.e.m., n=6-9/group, *P<0.05 vs. WT no rmCIRP; #P<0.05 vs. WT with rmCIRP at 5 mg/kg. […] In contrast, these deleterious effects of rmCIRP on the wild-type mice were diminished in Tlr4^−/− mice.

THP-1 cells = assay: TNF-α release from differentiated THP-1 cells stimulated with recombinant proteins; type: cell-based, human; conditions: 0.3 μg/ml each protein, 8 h, ELISA
Procedure: As with the murine model, the stimulation of TNF-α, release by rCIRP in a human model was studied. […] These experiments were conducted by incubating differentiated human THP-1 cells with rhCIRP or rmCIRP at the indicated concentrations for 4 h. *P<0.05 vs. no CIRP. Similarly, human PBMC were incubated with the indicated concentrations of rhCIRP for 8 h. *P<0.05 vs. no rhCIRP. Thus, stimulation of cytokine release by CIRP was not attributable to LPS contamination. Furthermore, CIRP-induced cytokine activation was conserved between rodents and humans.
rmCIRP induced TNF-α and HMGB1 release in macrophages (FIGS. 10a, b and c). It was reported that HMGB1 can also stimulate TNF-α release (Andersson, U., et al. High mobility group 1 protein (HMG-1) stimulates proinflammatory cytokine synthesis in human monocytes. J. Exp. Med. 192, 565-570 (2000)). The relationship between CIRP and HMGB1 on stimulating TNF-α release was analyzed by applying respective neutralizing antibodies. […] After 4 h, TNF-α levels in conditioned medium (CM) were assayed by ELISA. Data are mean±s.e.m. from three independent experiments. *P<0.05 vs. rmCIRP+ control IgG. In FIG. 16D, RAW 264.7 cells were pre-incubated with rabbit control IgG or anti-CIRP antibodies at indicated dilutions of 1 mg/ml for 20 min before adding 1.0 μg/ml rmCIRP. After 4 h, TNF-α levels in CM were assayed by ELISA. Data are mean±s.e.m. from three independent experiments. *P<0.05 vs. rmCIRP+ control IgG. THP-1 cells were incubated with 4 μg/ml of anti-CIRP antibodies, anti-HMGB1 antibodies, or non-immunized control IgG for 1 h prior to adding rmCIRP (0.3 μg/ml), rmHMGB1 (0.3 μg/ml), or rmCIRP/rmHMGB1 (0.3 μg/ml, 0.3 μg/ml) for 8 h. *P<0.05 vs. rmCIRP; #P<0.05 vs. rmHMGB1. […] Furthermore, rmCIRP, rmHMGB1, and rmCIRP plus rmHMGB1 induced TNF-α levels of 0.8, 0.6, and 1.6 ng/ml, respectively. […] TNF-α levels in all collected CM were assayed by ELISA. Data are mean±s.e.m. from three or four independent experiments.
Murine macrophage-like RAW 264.7 cells and human monocyte THP-1 cells were obtained from ATCC (Manassas, Va.). […]

B1: rmCIRP: recombinant murine (rat sequence) His-tagged CIRP expressed in E. coli (protein)
chain: MASDEGKLFVGGLSFDTNEQALEQVFSKYGQISEVVVVKDRETQRSRGFGFVTFENIDDAKDAMMAMNGKSVDGRQIRVDQAGKSSDNRSRGYRGGSAGGRGFFRGGRSRGRGFSRGGGDRGYGGGRFESRSGGYGGSRDYYASRSQGGSYGYRSSGGSYRDSYDSYATHNEHHHHHH
Question: With B1 as the molecule, how does the “deleterious effects in Tlr4−/− mice” value [1] read?
Answer: diminished

Question: And the “serum cytokines and organ injury markers in wild-type mice” value [1]?
Answer: increase of serum proinflammatory cytokines (TNF-α, IL-6, and HMGB1) and organ injury markers (AST and ALT) in a dose-dependent manner

Question: What about the “induced TNF-α levels” value (THP-1 cells) of the same molecule?
Answer: 0.8 ng/mL
